Tests used:
c-Src SH2 = experiment: SH2 binding enrichment of the phosphorylated peptide, bacterial display (enrichment ratio); higher = better substrate or ligand; peptides without Tyr show the background
Grb2 SH2 = Grb2 SH2 (UniProt P62993); experiment: as above
SHP2-C SH2 = experiment: as above
EPHB2 = EPHB2 (UniProt P29323); experiment: phosphorylation enrichment, bacterial display (enrichment ratio); higher = better substrate or ligand; peptides without Tyr show the background
AncSZ = experiment: as above
FGFR1 = FGFR1 (UniProt P11362); experiment: as above
Jak2 = Jak2 (UniProt O60674); experiment: as above
MERTK = MERTK (UniProt Q12866); experiment: as above
c-Abl (mouse) = experiment: as above
c-Src = experiment: as above
EPHB1 = EPHB1 (UniProt P54762); experiment: as above
Fer (mouse) = experiment: as above
FGFR3 = FGFR3 (UniProt P22607); experiment: as above
Fyn = Fyn (UniProt P06241); experiment: as above
Fes = Fes (UniProt P07332); experiment: as above
Hck = Hck (UniProt P08631); experiment: as above
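Wherever SH2 binding enrichment of the phosphorylated peptide, bacterial display is given: peptide library displayed on the E. coli surface as eCPX fusions, selected cells deep-sequenced, score is each peptide's frequency after selection divided by its frequency in the input.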
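Wherever phosphorylation enrichment, bacterial display is given: 11-residue human phosphosite peptides and single-mutation variants displayed on the E. coli surface, counted by deep sequencing, each peptide's frequency after selection divided by its frequency in the unselected input library; frequency after pTyr selection over input frequency; kinase dosed for 20-30% of maximal phosphorylation in three min.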

MERTK, sequence (Q12866 whole entry, looked up): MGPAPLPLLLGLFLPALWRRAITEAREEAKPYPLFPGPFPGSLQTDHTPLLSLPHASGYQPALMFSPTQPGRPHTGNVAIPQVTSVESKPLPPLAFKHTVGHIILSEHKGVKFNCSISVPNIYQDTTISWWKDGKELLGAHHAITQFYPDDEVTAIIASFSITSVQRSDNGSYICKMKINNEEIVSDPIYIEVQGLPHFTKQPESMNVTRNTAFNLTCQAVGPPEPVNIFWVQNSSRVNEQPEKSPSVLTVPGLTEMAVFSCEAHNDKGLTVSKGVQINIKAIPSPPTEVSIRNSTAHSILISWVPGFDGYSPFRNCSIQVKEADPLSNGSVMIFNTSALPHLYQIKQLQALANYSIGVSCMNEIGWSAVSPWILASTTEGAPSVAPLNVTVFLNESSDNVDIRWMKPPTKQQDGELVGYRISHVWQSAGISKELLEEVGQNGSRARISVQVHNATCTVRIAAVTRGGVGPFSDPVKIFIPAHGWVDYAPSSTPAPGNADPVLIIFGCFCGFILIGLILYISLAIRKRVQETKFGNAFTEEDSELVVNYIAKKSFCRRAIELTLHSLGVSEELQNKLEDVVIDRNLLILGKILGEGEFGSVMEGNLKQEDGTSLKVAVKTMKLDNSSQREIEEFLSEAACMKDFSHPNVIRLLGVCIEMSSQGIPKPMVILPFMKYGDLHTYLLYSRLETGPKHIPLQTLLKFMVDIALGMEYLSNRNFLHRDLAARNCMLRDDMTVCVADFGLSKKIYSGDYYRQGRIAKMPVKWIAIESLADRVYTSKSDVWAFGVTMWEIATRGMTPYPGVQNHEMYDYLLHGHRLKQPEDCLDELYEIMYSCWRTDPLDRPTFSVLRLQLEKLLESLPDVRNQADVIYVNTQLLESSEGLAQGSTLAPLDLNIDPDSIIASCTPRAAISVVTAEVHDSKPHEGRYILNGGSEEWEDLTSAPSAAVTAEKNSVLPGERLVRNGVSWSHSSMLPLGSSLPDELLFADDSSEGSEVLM
Grb2 SH2, sequence (P62993 whole entry, looked up): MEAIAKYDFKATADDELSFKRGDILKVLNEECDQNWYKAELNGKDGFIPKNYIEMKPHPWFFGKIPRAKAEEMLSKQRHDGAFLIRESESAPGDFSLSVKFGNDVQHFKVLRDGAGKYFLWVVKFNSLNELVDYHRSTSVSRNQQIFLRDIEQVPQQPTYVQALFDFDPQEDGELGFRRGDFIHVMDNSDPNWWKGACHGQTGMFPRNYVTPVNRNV
Jak2, sequence (O60674 whole entry, looked up): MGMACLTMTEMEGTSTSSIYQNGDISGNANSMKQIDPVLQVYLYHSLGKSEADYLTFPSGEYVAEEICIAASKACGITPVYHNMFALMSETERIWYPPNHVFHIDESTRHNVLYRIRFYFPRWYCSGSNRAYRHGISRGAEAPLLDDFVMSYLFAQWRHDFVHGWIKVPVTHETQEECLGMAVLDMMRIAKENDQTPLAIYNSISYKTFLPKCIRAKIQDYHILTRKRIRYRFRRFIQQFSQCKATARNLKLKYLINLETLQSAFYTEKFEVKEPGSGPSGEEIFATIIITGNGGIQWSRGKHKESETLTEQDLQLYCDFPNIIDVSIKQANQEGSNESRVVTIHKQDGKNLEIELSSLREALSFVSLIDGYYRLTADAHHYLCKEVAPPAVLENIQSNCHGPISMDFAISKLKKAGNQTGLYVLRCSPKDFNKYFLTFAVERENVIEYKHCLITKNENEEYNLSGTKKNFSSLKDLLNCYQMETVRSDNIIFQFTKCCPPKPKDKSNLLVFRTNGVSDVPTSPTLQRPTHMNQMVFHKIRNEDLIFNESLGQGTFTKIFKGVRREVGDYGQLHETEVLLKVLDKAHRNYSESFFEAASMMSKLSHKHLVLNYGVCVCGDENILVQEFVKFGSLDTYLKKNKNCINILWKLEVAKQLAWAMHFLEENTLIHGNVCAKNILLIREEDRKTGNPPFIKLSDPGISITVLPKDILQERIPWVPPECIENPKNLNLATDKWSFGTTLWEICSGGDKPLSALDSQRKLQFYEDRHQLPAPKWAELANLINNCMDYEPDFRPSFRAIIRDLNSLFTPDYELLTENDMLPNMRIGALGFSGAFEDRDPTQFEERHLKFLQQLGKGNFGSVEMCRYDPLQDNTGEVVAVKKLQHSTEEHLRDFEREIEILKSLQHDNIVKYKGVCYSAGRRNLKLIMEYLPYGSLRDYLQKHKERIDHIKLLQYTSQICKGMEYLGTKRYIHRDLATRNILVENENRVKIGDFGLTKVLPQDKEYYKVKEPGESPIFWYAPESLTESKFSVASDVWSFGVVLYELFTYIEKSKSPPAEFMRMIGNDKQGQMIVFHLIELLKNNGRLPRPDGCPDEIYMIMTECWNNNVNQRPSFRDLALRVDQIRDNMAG
FGFR1, sequence (P11362 whole entry, looked up): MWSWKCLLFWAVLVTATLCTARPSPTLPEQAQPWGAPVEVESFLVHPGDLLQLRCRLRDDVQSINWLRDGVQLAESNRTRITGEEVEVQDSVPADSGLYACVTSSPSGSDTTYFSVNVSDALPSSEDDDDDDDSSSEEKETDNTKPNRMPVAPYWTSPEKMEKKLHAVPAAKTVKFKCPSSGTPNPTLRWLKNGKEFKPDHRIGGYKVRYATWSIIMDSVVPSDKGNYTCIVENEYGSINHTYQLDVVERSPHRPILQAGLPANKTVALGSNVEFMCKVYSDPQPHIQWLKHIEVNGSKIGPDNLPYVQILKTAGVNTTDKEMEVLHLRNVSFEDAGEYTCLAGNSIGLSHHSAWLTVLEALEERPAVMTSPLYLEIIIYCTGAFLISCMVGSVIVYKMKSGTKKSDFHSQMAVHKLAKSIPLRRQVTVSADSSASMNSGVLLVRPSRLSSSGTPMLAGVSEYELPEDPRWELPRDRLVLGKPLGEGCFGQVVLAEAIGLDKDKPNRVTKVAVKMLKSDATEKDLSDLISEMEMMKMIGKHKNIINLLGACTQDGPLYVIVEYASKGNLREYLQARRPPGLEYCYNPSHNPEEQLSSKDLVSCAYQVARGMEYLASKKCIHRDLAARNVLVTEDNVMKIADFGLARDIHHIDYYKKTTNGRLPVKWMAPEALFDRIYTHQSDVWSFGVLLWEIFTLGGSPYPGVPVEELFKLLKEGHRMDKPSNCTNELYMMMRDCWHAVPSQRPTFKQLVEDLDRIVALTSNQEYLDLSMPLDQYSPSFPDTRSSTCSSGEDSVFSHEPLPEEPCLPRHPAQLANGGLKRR
Hck, sequence (P08631 whole entry, looked up, the tested form may be a part): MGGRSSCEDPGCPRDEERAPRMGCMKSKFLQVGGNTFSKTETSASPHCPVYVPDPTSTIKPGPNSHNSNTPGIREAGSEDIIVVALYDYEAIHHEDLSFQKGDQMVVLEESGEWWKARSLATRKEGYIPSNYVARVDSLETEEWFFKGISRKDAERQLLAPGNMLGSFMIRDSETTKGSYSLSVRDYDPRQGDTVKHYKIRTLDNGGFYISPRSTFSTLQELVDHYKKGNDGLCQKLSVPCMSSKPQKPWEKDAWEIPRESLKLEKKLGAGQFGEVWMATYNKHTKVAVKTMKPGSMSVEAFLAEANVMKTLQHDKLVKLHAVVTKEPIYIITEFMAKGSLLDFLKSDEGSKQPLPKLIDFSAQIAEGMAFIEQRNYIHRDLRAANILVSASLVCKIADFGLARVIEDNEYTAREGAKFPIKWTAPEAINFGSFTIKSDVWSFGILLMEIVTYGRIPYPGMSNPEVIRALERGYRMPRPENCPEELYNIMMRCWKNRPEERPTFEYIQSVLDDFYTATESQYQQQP
FGFR3, sequence (P22607 whole entry, looked up): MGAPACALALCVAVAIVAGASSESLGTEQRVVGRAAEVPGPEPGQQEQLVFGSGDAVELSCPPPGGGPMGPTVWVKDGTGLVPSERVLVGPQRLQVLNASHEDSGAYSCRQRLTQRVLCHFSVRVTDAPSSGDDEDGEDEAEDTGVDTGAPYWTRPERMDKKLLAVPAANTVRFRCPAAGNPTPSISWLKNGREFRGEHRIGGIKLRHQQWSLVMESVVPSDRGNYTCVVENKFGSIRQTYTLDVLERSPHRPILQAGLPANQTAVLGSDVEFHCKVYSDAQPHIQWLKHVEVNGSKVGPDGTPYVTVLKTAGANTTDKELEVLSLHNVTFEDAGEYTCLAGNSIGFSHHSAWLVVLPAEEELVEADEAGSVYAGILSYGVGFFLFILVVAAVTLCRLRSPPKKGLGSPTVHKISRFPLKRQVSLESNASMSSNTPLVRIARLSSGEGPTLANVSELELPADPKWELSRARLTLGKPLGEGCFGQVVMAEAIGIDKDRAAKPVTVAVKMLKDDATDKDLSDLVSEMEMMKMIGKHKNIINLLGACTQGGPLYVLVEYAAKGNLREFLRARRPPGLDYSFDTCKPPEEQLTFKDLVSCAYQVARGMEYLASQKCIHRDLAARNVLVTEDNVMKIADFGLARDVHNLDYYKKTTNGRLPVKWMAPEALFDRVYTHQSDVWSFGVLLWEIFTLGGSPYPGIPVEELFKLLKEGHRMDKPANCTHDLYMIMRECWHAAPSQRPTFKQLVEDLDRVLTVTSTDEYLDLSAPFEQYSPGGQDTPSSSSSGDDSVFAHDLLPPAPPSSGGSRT
Fyn, sequence (P06241 whole entry, looked up): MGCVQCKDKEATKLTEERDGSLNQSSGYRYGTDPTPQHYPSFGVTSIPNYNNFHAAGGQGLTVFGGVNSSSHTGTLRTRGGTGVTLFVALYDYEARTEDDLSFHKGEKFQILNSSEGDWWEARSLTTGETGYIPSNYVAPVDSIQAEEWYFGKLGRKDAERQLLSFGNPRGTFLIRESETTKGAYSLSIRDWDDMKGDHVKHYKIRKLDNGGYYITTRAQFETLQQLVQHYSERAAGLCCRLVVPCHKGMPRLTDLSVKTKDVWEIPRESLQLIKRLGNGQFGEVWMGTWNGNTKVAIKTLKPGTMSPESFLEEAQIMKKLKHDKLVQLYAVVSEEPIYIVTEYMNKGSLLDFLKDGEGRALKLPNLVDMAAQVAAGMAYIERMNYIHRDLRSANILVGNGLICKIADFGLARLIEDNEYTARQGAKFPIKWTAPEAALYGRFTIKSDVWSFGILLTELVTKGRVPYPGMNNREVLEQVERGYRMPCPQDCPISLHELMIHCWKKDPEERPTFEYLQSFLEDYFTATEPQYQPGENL

Sequence	SH2 binding enrichment (c-Src SH2)	SH2 binding enrichment (Grb2 SH2)	SH2 binding enrichment (SHP2-C SH2)	phosphorylation enrichment (EPHB2)	phosphorylation enrichment (AncSZ)	phosphorylation enrichment (FGFR1)	phosphorylation enrichment (Jak2)	phosphorylation enrichment (MERTK)	phosphorylation enrichment (c-Abl (mouse))	phosphorylation enrichment (c-Src)	phosphorylation enrichment (EPHB1)	phosphorylation enrichment (Fer (mouse))	phosphorylation enrichment (FGFR3)	phosphorylation enrichment (Fyn)	phosphorylation enrichment (Fes)	phosphorylation enrichment (Hck)
LEDPMYDIIRD [RP9_Y142_H137L]	1.67	0.863	0.475	6.72	3.53	1.14	2.7	7.83	4.38	7.86	4.98	6.19	1.29	7.34	2.32	7.93
MANYVYKAGPS [MAML2_Y515_M514V]	0.547	0.755	1.09	0.455	0.448	0.434	0.452	0.473	0.815	0.457	0.476	0.343	0.508	0.451	0.643	0.419
SSQILYKLEQS [THADA_Y701_V699I]	0.537	1	0.533	0.451	0.727	0.4	0.7	0.466	0.551	0.669	0.56	0.423	0.582	0.388	0.781	0.49
GLDGSYLLRDS [SH2D1A_Y29]	0.42	0.756	0.636	0.387	0.574	0.426	0.578	0.413	0.471	0.397	0.371	0.39	0.464	0.413	0.622	0.563
RLQAAYNLVKR [PFKM_Y103_R100Q]	1.51	1.86	2.08	0.388	0.787	0.525	0.866	0.541	0.853	0.526	0.59	0.494	0.489	0.731	1.19	0.633
RAILDYIASKF [GSTA3_Y74_N73D_YF]	0.689	1.08	1.06	0.445	0.674	0.567	0.755	0.375	0.603	0.358	0.479	0.542	0.79	0.433	1.02	0.395
VRALTYCDLHK [KCNH2_Y827]	0.715	0.885	0.968	0.704	0.74	0.452	0.605	0.453	0.656	0.392	0.603	0.531	0.591	0.499	0.874	0.582
KLSFSYGRALQ [ALDOB_Y302]	0.592	1.04	0.955	0.483	0.9	0.519	0.847	0.407	0.694	0.417	0.548	0.413	0.642	0.388	0.994	0.46
YAREGYSALPQ [SARS2_Y52]	0.552	0.901	0.577	0.459	0.678	0.522	0.904	0.442	0.541	0.373	0.499	0.439	0.52	0.396	0.789	0.58
GHLYAYDWIRI [BEST1_Y227_S231R]	1.97	1.25	1.31	2.42	1.44	4.35	0.941	9.27	0.857	2.28	3.44	15.8	2.73	1.84	3.03	3.12
RIVEIYSRRLQ [GCH1_Y175]	0.617	0.789	0.879	0.92	0.942	0.777	0.794	0.678	0.747	0.803	0.645	0.556	0.96	0.921	0.976	1.02
CDYKKYGKGLR [ZNF445_Y433_Y428C]	0.6	0.882	0.805	0.362	0.565	0.404	0.563	0.335	0.525	0.299	0.284	0.318	0.445	0.364	0.576	0.349
WFKKFYDANYD [MAPRE2_Y158]	0.581	0.82	0.722	0.529	1.18	0.43	0.899	0.399	0.774	0.364	0.477	0.398	0.552	0.398	1.03	0.423
QNTGDYFDLFG [PTPN11_Y62_YF]	0.409	0.795	0.689	20.4	8.28	26.8	11.6	3.03	1.48	1.56	23.3	0.753	23.3	1.26	1.49	1.3
TRSFKCLLLSM [NF1_Y491_Y491C_YF]	0.912	1.11	0.787	0.581	0.969	0.531	1.09	0.444	0.713	0.4	0.551	0.496	0.609	0.474	1.08	0.492
AEVDTYCRHNY [HLA-DRB1_Y107_A103E]	0.699	0.939	0.838	0.559	0.771	0.461	0.682	0.391	0.554	0.537	0.428	0.442	0.559	0.394	0.98	0.505
